The record followed here is paper PMC6364807 (Nature, 2019).

In the assay the target is human GABAA receptor β3 subunit (human, UniProt P28472, N-linked glycans at Asn80 and Asn149). Nature of the assay: cryo-EM structure.
human GABAA receptor β3 subunit, sequence (P28472 26-473): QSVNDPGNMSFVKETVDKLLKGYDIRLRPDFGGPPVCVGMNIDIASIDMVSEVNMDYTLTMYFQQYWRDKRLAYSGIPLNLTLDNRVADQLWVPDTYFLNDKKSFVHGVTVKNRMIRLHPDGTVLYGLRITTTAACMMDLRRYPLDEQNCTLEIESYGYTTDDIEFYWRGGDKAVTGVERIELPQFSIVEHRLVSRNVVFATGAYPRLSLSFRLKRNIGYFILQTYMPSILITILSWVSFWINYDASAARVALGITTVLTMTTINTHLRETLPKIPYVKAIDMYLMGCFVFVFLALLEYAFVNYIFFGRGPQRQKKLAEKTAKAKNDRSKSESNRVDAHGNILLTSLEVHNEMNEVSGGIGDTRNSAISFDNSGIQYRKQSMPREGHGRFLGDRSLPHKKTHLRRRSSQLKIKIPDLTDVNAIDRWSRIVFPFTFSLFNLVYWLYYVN

B1: megabody MbNb38^cHopQ (VHH)
VHH: QVQLQESGGGLVQAGGSLRVSCAASGRTFTAYIMAWFRQAPGKEREFLAAMDQGRIQYYGDSVRGRFTISRDYAKNSVDLQLDGLRPEDTAVYYCAAGAGFWGLRTASSYHYWGQGTQVTVSS
Regarding B1, the binding result is recorded as “binds”.
